Measured values as given in US12527876B2, “Insulin-like growth factor-chemotherapeutic conjugate for treating myelodysplastic syndrome” (IGF Oncology, LLC, priority 2017, dated 2026).

Columns and labels:
[1] = target: IGF receptors (Homo sapiens, UniProt P08069); test: Competition binding of refolded IGF fusion proteins to IGF receptors against radioactive wild type IGF (Example 2); details: refolded 3 hours at room temperature, read-out: approximate binding constants (KDs)
Procedure: 2 ml of each of the original Ni eluates from Example 1 was mixed with about an equal volume of 100 mM glycine, 6 M urea, pH 9.5, concentrated by ultrafiltration in a CENTRICON 3 kDa filter unit, then brought up again in that buffer and concentrated to about 420 ul. Then they were diluted to 2 mg/ml for 403IGF, 764IGF, and 765IGF, and 4 mg/ml for 784IGF and 2.4 mg/ml for 785IGF.
200 ul of each of these was mixed rapidly with 1.8 ml of refold buffer. Refold buffer was 1.4 M urea, 100 mM glycine, 0.5 M NaCl, 19% ethanol, 0.5 mM GSSG, 4 mM GSH, pH 9.5. They were refolded at room temperature for 3 hours, and then tested in a binding assay for competition binding to IGF receptors against […] radioactive wild type IGF (Perkin Elmer, Inc.) For comparison, commercial Long-R3-IGF (LR3IGF) was also tested.

[2] = target: T1, type 1 IGF receptors (IGF-1R) on MCF7 cells (Homo sapiens, UniProt P08069); test: Competition binding assay to IGF-1 receptor on MCF7 cells versus I-125-labeled IGF-1; details: FIG. 1 assay
T1 construct: type 1 IGF receptors that are abundant on MCF7 cells; host or cells: MCF7
Procedure: Theory of assay: Radioactive ^125I labeled insulin-like growth factor-1 (IGF-1) competes with a test ligand for binding to type 1 IGF receptors that are abundant on MCF7 cells (a human breast cancer cell line) in vitro.
MCF7 cell media: 500 mL MEM, 0.01 mg/mL bovine insulin; 5 mL sodium pyruvate, 5 mL non-essential amino acids, 10 mL sodium bicarbonate, 10 mL fetal bovine serum, 5 mL penicillin/streptomycin.
MCF7 cells (ATCC HTB-22) were plated at 20,000 cells per well in a volume of 0.5 mL/well in a 48-well tissue culture plate (flat bottom with low evaporation lid) and placed in a cell culture incubator set at 37° C. with 5% CO2. After 2-3 days in culture the plates were washed 2× with 0.5 mL per well of cold binding assay buffer (100 mM Hepes-NaOH, pH 7.2; 120 mM NaCl; 5 mM KCl; 1.2 mM MgSO4; 0.1% BSA). After the final wash, 0.5 mL of binding assay buffer was added to each well and the plates are placed at 4° C. for 2 to 6 hours.
Test ligands were prepared at a concentration of 10 micromolar (long-R3-IGF) or 20 micromolar (765IGF and IGF-MTX) in 5 mM HCl in a volume of 200 ul. […] For long-R3, the lyophilized commercial material is dissolved at 1.0 mg/ml in 10 mM HCl and this is diluted to a concentration of 91 ug/ml for a 10 uM solution. […]
The plates were then incubated overnight at 4° C. […] Cells were lysed with 0.5 mL 300 mM NaOH, 1% SDS and the lysates were counted on a gamma counter.

[3] = test system: soluble IGF binding proteins; details: compared to wild-type IGF-1; Francis 1992, Tomas 1993, U.S. Pat. No. 4,876,242; cited from earlier work

T1 sequence (P08069 31-736 limits assumed): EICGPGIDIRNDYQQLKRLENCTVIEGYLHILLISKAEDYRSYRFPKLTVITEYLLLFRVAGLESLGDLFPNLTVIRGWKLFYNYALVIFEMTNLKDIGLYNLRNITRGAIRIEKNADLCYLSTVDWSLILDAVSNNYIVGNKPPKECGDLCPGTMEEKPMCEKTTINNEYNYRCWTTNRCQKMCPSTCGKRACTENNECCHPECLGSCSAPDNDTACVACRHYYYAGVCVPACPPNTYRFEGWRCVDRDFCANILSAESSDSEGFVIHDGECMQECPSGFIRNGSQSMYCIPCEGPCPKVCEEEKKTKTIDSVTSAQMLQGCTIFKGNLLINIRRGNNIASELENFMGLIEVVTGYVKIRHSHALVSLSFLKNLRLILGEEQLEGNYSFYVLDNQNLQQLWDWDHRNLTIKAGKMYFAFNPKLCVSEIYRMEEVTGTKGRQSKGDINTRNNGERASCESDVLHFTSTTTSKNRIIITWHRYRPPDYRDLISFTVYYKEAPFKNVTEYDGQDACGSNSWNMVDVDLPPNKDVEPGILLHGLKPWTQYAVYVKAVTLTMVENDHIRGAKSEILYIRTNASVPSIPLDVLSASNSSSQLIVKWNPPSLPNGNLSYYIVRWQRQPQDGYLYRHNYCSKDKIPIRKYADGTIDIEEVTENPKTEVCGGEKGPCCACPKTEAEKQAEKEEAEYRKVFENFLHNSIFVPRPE
T1 sequence (P08069 741-1367 partner limits assumed): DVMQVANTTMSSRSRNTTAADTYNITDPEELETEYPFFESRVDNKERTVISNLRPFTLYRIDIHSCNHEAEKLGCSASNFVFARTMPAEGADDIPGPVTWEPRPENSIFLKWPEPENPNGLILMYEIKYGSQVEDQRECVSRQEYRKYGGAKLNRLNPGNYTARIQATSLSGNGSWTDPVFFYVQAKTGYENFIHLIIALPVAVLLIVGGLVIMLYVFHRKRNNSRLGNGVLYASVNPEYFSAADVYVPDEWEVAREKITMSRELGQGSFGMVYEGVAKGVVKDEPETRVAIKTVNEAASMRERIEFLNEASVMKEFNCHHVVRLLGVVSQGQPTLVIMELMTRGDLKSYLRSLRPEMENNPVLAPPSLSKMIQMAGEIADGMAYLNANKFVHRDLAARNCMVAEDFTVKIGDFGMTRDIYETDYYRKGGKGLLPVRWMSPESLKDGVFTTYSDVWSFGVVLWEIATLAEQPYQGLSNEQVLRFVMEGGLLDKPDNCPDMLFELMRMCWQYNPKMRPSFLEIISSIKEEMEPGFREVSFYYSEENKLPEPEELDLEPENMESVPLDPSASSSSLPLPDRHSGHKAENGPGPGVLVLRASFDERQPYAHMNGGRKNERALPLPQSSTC
Sequence of IGF receptors (P08069 31-736 limits assumed): as the sequence (P08069 31-736 limits assumed) above
Sequence of IGF receptors (P08069 741-1367 partner limits assumed): as the sequence (P08069 741-1367 partner limits assumed) above

B1: LR3IGF: commercial Long-R3-IGF, variant of IGF-1, SEQ ID NO: 5 (protein)
chain: MFPAMPLSSLFVNGPRTLCGALVDALQFVCGDRGFYFNKPTGYGSSSRRAPQTGIVDECCFRSCDLRRLEMYCAPLKPAKSEA
- Kd [1]: ~1 nM
- Kd [2]: ~3 nM
- binding affinity to the soluble IGF binding proteins [3]: reduced binding affinity
